From publication PMC10786891, “Massively parallel profiling of RNA-targeting CRISPR-Cas13d”

Molecular target: T1, EsCas13d, nuclease-dead (Eubacterium siraeum, UniProt B0MS50, R295A;H300A;R849A;H854A)
T1 sequence: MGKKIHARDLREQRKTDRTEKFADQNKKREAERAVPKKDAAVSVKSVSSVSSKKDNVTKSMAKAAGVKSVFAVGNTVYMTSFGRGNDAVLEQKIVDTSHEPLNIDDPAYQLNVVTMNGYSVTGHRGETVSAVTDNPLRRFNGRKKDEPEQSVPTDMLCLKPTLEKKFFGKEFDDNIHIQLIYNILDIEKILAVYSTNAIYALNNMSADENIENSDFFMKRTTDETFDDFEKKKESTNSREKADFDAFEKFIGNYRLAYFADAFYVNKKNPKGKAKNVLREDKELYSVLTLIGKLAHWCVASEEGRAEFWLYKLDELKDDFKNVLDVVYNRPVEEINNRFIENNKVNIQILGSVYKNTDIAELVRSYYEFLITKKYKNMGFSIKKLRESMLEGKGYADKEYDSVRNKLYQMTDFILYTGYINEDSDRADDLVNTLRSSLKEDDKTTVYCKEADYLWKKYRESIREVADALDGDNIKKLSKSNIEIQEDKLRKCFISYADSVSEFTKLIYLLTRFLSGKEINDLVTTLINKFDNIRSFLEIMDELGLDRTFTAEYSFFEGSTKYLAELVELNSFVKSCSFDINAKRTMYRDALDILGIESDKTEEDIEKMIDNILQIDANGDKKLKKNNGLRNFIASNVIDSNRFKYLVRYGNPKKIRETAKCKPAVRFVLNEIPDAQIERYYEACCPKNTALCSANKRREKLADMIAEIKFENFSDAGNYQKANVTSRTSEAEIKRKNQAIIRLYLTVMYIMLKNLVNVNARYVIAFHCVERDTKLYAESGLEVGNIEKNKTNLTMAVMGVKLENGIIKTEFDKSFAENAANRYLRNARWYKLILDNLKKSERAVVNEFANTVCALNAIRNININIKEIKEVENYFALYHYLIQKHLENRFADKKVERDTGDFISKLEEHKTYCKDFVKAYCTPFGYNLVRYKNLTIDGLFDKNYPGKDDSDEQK
Assay: crRNA (strand 1, pre-loaded); Mg2+; 40 mM Tris-HCl pH 7.5, 150 mM NaCl, 6 mM MgCl2, 1 mM DTT, 0.1% Tween-20, 0.2 mg/ml BSA; 25 C; 10 min per concentration, then washed
Conditions: tags: His6-TwinStrep-SUMO cleaved; N-terminal SNAP kept (SNAP-Surface 488); label: 3' end held by stalled T7 RNA polymerase

Binder | Kd
target 1 MT 5'PFS CAA 3'PFS ACU (mixed) RNA 1: CACCCGUGCAAAAAUGCAGGGGUCUAAAACUGAGCGGAUAACCUCUCUAUGG RNA 2: GGGAAUGGAUCCACAUCUACGAAUUCCAACCAUAGAGAGGUUAUCCGCUCAACUAGAUCGGAAGAGCACACGU | ~20.5 nM
target 1 MT 5'PFS AGA 3'PFS UCA (mixed) RNA 1: CACCCGUGCAAAAAUGCAGGGGUCUAAAACUGAGCGGAUAACCUCUCUAUGG RNA 2: GGGAAUGGAUCCACAUCUACGAAUUCAGACCAUAGAGAGGUUAUCCGCUCAUCAAGAUCGGAAGAGCACACGU | 61 ± 23 nM
target 1 MT 5'PFS CAU 3'PFS CUU (mixed) RNA 1: CACCCGUGCAAAAAUGCAGGGGUCUAAAACUGAGCGGAUAACCUCUCUAUGG RNA 2: GGGAAUGGAUCCACAUCUACGAAUUCCAUCCAUAGAGAGGUUAUCCGCUCACUUAGAUCGGAAGAGCACACGU | ~48.5 nM
target 1 MT 5'PFS GGG 3'PFS GCU (mixed) RNA 1: CACCCGUGCAAAAAUGCAGGGGUCUAAAACUGAGCGGAUAACCUCUCUAUGG RNA 2: GGGAAUGGAUCCACAUCUACGAAUUCGGGCCAUAGAGAGGUUAUCCGCUCAGCUAGAUCGGAAGAGCACACGU | 7.45 ± 1.45 nM
target 1 MT 5'PFS GUG 3'PFS GCG (mixed) RNA 1: CACCCGUGCAAAAAUGCAGGGGUCUAAAACUGAGCGGAUAACCUCUCUAUGG RNA 2: GGGAAUGGAUCCACAUCUACGAAUUCGUGCCAUAGAGAGGUUAUCCGCUCAGCGAGAUCGGAAGAGCACACGU | 14.4 ± 2 nM
target 1 MT 5'PFS AGA 3'PFS ACA (mixed) RNA 1: CACCCGUGCAAAAAUGCAGGGGUCUAAAACUGAGCGGAUAACCUCUCUAUGG RNA 2: GGGAAUGGAUCCACAUCUACGAAUUCAGACCAUAGAGAGGUUAUCCGCUCAACAAGAUCGGAAGAGCACACGU | 56 ± 18 nM
target 1 MT 5'PFS ACA 3'PFS UAC (mixed) RNA 1: CACCCGUGCAAAAAUGCAGGGGUCUAAAACUGAGCGGAUAACCUCUCUAUGG RNA 2: GGGAAUGGAUCCACAUCUACGAAUUCACACCAUAGAGAGGUUAUCCGCUCAUACAGAUCGGAAGAGCACACGU | 25.5 ± 11 nM
target 1 MT 5'PFS GUG 3'PFS GCC (mixed) RNA 1: CACCCGUGCAAAAAUGCAGGGGUCUAAAACUGAGCGGAUAACCUCUCUAUGG RNA 2: GGGAAUGGAUCCACAUCUACGAAUUCGUGCCAUAGAGAGGUUAUCCGCUCAGCCAGAUCGGAAGAGCACACGU | 12.7 ± 1.6 nM
target 1 MT 5'PFS UCG 3'PFS AGA (mixed) RNA 1: CACCCGUGCAAAAAUGCAGGGGUCUAAAACUGAGCGGAUAACCUCUCUAUGG RNA 2: GGGAAUGGAUCCACAUCUACGAAUUCUCGCCAUAGAGAGGUUAUCCGCUCAAGAAGAUCGGAAGAGCACACGU | 39 ± 11 nM
target 1 MT 5'PFS GUU 3'PFS CUU (mixed) RNA 1: CACCCGUGCAAAAAUGCAGGGGUCUAAAACUGAGCGGAUAACCUCUCUAUGG RNA 2: GGGAAUGGAUCCACAUCUACGAAUUCGUUCCAUAGAGAGGUUAUCCGCUCACUUAGAUCGGAAGAGCACACGU | 16.4 ± 3.1 nM
target 1 MT 5'PFS CCA 3'PFS CUA (mixed) RNA 1: CACCCGUGCAAAAAUGCAGGGGUCUAAAACUGAGCGGAUAACCUCUCUAUGG RNA 2: GGGAAUGGAUCCACAUCUACGAAUUCCCACCAUAGAGAGGUUAUCCGCUCACUAAGAUCGGAAGAGCACACGU | 2.5 ± 0.8 nM
target 1 MT 5'PFS GUU 3'PFS CUC (mixed) RNA 1: CACCCGUGCAAAAAUGCAGGGGUCUAAAACUGAGCGGAUAACCUCUCUAUGG RNA 2: GGGAAUGGAUCCACAUCUACGAAUUCGUUCCAUAGAGAGGUUAUCCGCUCACUCAGAUCGGAAGAGCACACGU | 21.5 ± 4 nM
target 1 MT 5'PFS AGA 3'PFS UCC (mixed) RNA 1: CACCCGUGCAAAAAUGCAGGGGUCUAAAACUGAGCGGAUAACCUCUCUAUGG RNA 2: GGGAAUGGAUCCACAUCUACGAAUUCAGACCAUAGAGAGGUUAUCCGCUCAUCCAGAUCGGAAGAGCACACGU | 49.5 ± 19 nM
target 1 MT 5'PFS GUG 3'PFS AAG (mixed) RNA 1: CACCCGUGCAAAAAUGCAGGGGUCUAAAACUGAGCGGAUAACCUCUCUAUGG RNA 2: GGGAAUGGAUCCACAUCUACGAAUUCGUGCCAUAGAGAGGUUAUCCGCUCAAAGAGAUCGGAAGAGCACACGU | 23.1 ± 1.45 nM
target 1 MT 5'PFS GUG 3'PFS AAA (mixed) RNA 1: CACCCGUGCAAAAAUGCAGGGGUCUAAAACUGAGCGGAUAACCUCUCUAUGG RNA 2: GGGAAUGGAUCCACAUCUACGAAUUCGUGCCAUAGAGAGGUUAUCCGCUCAAAAAGAUCGGAAGAGCACACGU | 30.3 ± 2.5 nM
target 1 MT 5'PFS GUU 3'PFS CUA (mixed) RNA 1: CACCCGUGCAAAAAUGCAGGGGUCUAAAACUGAGCGGAUAACCUCUCUAUGG RNA 2: GGGAAUGGAUCCACAUCUACGAAUUCGUUCCAUAGAGAGGUUAUCCGCUCACUAAGAUCGGAAGAGCACACGU | 17.6 ± 3.25 nM
target 1 MT 5'PFS AGA 3'PFS UCG (mixed) RNA 1: CACCCGUGCAAAAAUGCAGGGGUCUAAAACUGAGCGGAUAACCUCUCUAUGG RNA 2: GGGAAUGGAUCCACAUCUACGAAUUCAGACCAUAGAGAGGUUAUCCGCUCAUCGAGAUCGGAAGAGCACACGU | 47 ± 17.5 nM
target 1 MT 5'PFS AGA 3'PFS ACC (mixed) RNA 1: CACCCGUGCAAAAAUGCAGGGGUCUAAAACUGAGCGGAUAACCUCUCUAUGG RNA 2: GGGAAUGGAUCCACAUCUACGAAUUCAGACCAUAGAGAGGUUAUCCGCUCAACCAGAUCGGAAGAGCACACGU | 47 ± 16 nM
target 1 MT 5'PFS CCU 3'PFS AAU (mixed) RNA 1: CACCCGUGCAAAAAUGCAGGGGUCUAAAACUGAGCGGAUAACCUCUCUAUGG RNA 2: GGGAAUGGAUCCACAUCUACGAAUUCCCUCCAUAGAGAGGUUAUCCGCUCAAAUAGAUCGGAAGAGCACACGU | 16.7 ± 4.65 nM
target 1 MT 5'PFS AGA 3'PFS UCU (mixed) RNA 1: CACCCGUGCAAAAAUGCAGGGGUCUAAAACUGAGCGGAUAACCUCUCUAUGG RNA 2: GGGAAUGGAUCCACAUCUACGAAUUCAGACCAUAGAGAGGUUAUCCGCUCAUCUAGAUCGGAAGAGCACACGU | 42 ± 15.5 nM
target 1 MT 5'PFS ACG 3'PFS CAC (mixed) RNA 1: CACCCGUGCAAAAAUGCAGGGGUCUAAAACUGAGCGGAUAACCUCUCUAUGG RNA 2: GGGAAUGGAUCCACAUCUACGAAUUCACGCCAUAGAGAGGUUAUCCGCUCACACAGAUCGGAAGAGCACACGU | ~36 nM
target 1 MT 5'PFS GUG 3'PFS AAC (mixed) RNA 1: CACCCGUGCAAAAAUGCAGGGGUCUAAAACUGAGCGGAUAACCUCUCUAUGG RNA 2: GGGAAUGGAUCCACAUCUACGAAUUCGUGCCAUAGAGAGGUUAUCCGCUCAAACAGAUCGGAAGAGCACACGU | 23.9 ± 2.9 nM
target 1 MT 5'PFS GUU 3'PFS CUG (mixed) RNA 1: CACCCGUGCAAAAAUGCAGGGGUCUAAAACUGAGCGGAUAACCUCUCUAUGG RNA 2: GGGAAUGGAUCCACAUCUACGAAUUCGUUCCAUAGAGAGGUUAUCCGCUCACUGAGAUCGGAAGAGCACACGU | 12.8 ± 1.4 nM
target 1 C2G,G13C (mixed) RNA 1: CACCCGUGCAAAAAUGCAGGGGUCUAAAACUGAGCGGAUAACCUCUCUAUGG RNA 2: GGGAAUGGAUCCACAUCUACGAAUUCGUACCAUAGAGACGUUAUCCGCUGACCGAGAUCGGAAGAGCACACGU | 47 ± 3.5 nM
target 1 C6U,C7U (mixed) RNA 1: CACCCGUGCAAAAAUGCAGGGGUCUAAAACUGAGCGGAUAACCUCUCUAUGG RNA 2: GGGAAUGGAUCCACAUCUACGAAUUCGUACCAUAGAGAGGUUAUUUGCUCACCGAGAUCGGAAGAGCACACGU | 6.3 ± 0.5 nM
target 1 MT 5'PFS UAA 3'PFS UCG (mixed) RNA 1: CACCCGUGCAAAAAUGCAGGGGUCUAAAACUGAGCGGAUAACCUCUCUAUGG RNA 2: GGGAAUGGAUCCACAUCUACGAAUUCUAACCAUAGAGAGGUUAUCCGCUCAUCGAGAUCGGAAGAGCACACGU | 23 ± 6.5 nM
target 1 insA 3' of 17,insC 3' of 9 (mixed) RNA 1: CACCCGUGCAAAAAUGCAGGGGUCUAAAACUGAGCGGAUAACCUCUCUAUGG RNA 2: GGGAAUGGAUCCACAUCUACGAAUUCGUACCAUAGAAGAGGUUACUCCGCUCACCGAGAUCGGAAGAGCACACGU | 12.3 ± 0.6 nM
target 1 MT 5'PFS UCG 3'PFS AGU (mixed) RNA 1: CACCCGUGCAAAAAUGCAGGGGUCUAAAACUGAGCGGAUAACCUCUCUAUGG RNA 2: GGGAAUGGAUCCACAUCUACGAAUUCUCGCCAUAGAGAGGUUAUCCGCUCAAGUAGAUCGGAAGAGCACACGU | 50 ± 24.5 nM
